{"source": "paper PMC11822720", "target": "Centrolobium microchaete seed lectin (Centrolobium microchaete)", "assay": "crystal structure; CML co-crystallised with 5 mM MDM; 200 mM ammonium sulfate, 100 mM HEPES pH 7.5, 25% PEG 3350; space group C121, one dimer per asymmetric unit; dimer also checked by PISA", "data": [{"substance": "Centrolobium microchaete seed lectin (natural protein)", "values": [{"measurement": "stoichiometry N", "result": 2}]}]}
